{
  "source": "IntAct's records for PubMed 31515488",
  "parents": {"B1": {"name": "Guanine nucleotide exchange factor for Rab-3A (Homo sapiens), Q8TBN0 (parent)", "chain": "MWSGPPQPDQGLPPPLAAVPVPWKSTDPCQGHRESPGALVETSAGEEAQGQEGPAAAQLDVLRLRSSSMEIREKGSEFLKEELHRAQKELKLKDEECERLSKVREQLEQELEELTASLFEEAHKMVREANMKQAASEKQLKEARGKIDMLQAEVTALKTLVITSTPASPNRELHPQLLSPTKAGPRKGHSRHKSTSSTLCPAVCPAAGHTLTPDREGKEVDTILFAEFQAWRESPTLDKTCPFLERVYREDVGPCLDFTMQELSVLVRAAVEDNTLTIEPVASQTLPTVKVAEVDCSSTNTCALSGLTRTCRHRIRLGDSKSHYYISPSSRARITAVCNFFTYIRYIQQGLVRQDAEPMFWEIMRLRKEMSLAKLGFFPQEA"}, "B2": {"name": "Notch homolog 2 N-terminal-like protein A (Homo sapiens), Q7Z3S9 (parent)", "chain": "MCVTYHNGTGYCKCPEGFLGEYCQHRDPCEKNRCQNGGTCVAQAMLGKATCRCASGFTGEDCQYSTSHPCFVSRPCLNGGTCHMLSRDTYECTCQVGFTGKECQWTDACLSHPCANGSTCTTVANQFSCKCLTGFTGQKCETDVNECDIPGHCQHGGTCLNLPGSYQCQCLQGFTGQYCDSLYVPCAPSPCVNGGTCRQTGDFTFECNCLPETVRRGTELWERDREVWNGKEHDEN", "partner": "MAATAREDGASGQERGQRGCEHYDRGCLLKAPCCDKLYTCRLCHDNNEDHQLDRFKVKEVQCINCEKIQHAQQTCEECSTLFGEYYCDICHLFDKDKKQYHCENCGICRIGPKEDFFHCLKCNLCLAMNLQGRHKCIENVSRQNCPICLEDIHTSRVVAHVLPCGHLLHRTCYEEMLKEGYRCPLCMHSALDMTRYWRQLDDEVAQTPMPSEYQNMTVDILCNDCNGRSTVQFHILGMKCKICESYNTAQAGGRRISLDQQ"}, "B3": {"name": "Zinc finger CCCH-type with G patch domain-containing protein (Homo sapiens), Q8N5A5 (parent)", "chain": "MDEESLESALQTYRAQLQQVELALGAGLDSSEQADLRQLQGDLKELIELTEASLVSVRKSSLLAALDEERPGRQEDAEYQAFREAITEAVEAPAAARGSGSETVPKAEAGPESAAGGQEEEEGEDEEELSGTKVSAPYYSSWGTLEYHNAMVVGTEEAEDGSAGVRVLYLYPTHKSLKPCPFFLEGKCRFKENCRFSHGQVVSLDELRPFQDPDLSSLQAGSACLAKHQDGLWHAARITDVDNGYYTVKFDSLLLREAVVEGDGILPPLRTEATESDSDSDGTGDSSYARVVGSDAVDSAQSSALCPSLAVVGSDAVDSGTCSSAFAGWEVHTRGIGSRLLTKMGYEFGKGLGRHAEGRVEPIHAVVLPRGKSLDQCVETLQKQTRVGKAGTNKPPRCRGRGARPGGRPAPRNVFDFLNEKLQGQAPGALEAGAAPAGRRSKDMYHASKSAKRALSLRLFQTEEKIERTQRDIRSIQEALARNAGRHSVASAQLQEKLAGAQRQLGQLRAQEAGLQQEQRKADTHKKMTEF", "partner": "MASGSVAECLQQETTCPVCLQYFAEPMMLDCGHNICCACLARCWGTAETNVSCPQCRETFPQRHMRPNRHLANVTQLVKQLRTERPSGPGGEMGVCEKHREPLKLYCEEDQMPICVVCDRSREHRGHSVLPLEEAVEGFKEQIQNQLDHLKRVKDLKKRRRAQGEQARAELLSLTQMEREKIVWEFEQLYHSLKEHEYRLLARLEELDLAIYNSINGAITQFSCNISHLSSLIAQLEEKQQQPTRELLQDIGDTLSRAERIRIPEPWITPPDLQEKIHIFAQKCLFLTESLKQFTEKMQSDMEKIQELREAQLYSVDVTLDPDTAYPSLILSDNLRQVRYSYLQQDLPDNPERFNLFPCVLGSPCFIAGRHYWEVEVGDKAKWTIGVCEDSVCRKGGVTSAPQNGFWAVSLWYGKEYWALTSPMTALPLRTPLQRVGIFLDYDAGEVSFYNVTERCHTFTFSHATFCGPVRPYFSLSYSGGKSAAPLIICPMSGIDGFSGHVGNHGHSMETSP"}, "B4": {"name": "Forkhead box protein R1 (Homo sapiens), Q6PIV2 (parent)", "chain": "MGNELFLAFTTSHLPLAEQKLARYKLRIVKPPKLPLEKKPNPDKDGPDYEPNLWMWVNPNIVYPPGKLEVSGRRKREDLTSTLPSSQPPQKEEDASCSEAAGVESLSQSSSKRSPPRKRFAFSPSTWELTEEEEAEDQEDSSSMALPSPHKRAPLQSRRLRQASSQAGRLWSRPPLNYFHLIALALRNSSPCGLNVQQIYSFTRKHFPFFRTAPEGWKNTVRHNLCFRDSFEKVPVSMQGGASTRPRSCLWKLTEEGHRRFAEEARALASTRLESIQQCMSQPDVMPFLFDL", "partner": "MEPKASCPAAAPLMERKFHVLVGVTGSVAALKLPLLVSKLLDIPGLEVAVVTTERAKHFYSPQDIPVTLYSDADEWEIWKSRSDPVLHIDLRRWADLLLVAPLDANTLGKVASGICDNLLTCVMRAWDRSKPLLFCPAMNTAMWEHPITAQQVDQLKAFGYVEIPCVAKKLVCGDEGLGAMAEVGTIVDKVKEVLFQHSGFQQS"}, "B5": {"name": "Calcium-binding and coiled-coil domain-containing protein 2 (Homo sapiens), Q13137 (parent)", "chain": "MEETIKDPPTSAVLLDHCHFSQVIFNSVEKFYIPGGDVTCHYTFTQHFIPRRKDWIGIFRVGWKTTREYYTFMWVTLPIDLNNKSAKQQEVQFKAYYLPKDDEYYQFCYVDEDGVVRGASIPFQFRPENEEDILVVTTQGEVEEIEQHNKELCKENQELKDSCISLQKQNSDMQAELQKKQEELETLQSINKKLELKVKEQKDYWETELLQLKEQNQKMSSENEKMGIRVDQLQAQLSTQEKEMEKLVQGDQDKTEQLEQLKKENDHLFLSLTEQRKDQKKLEQTVEQMKQNETTAMKKQQELMDENFDLSKRLSENEIICNALQRQKERLEGENDLLKRENSRLLSYMGLDFNSLPYQVPTSDEGGARQNPGLAYGNPYSGIQESSSPSPLSIKKCPICKADDICDHTLEQQQMQPLCFNCPICDKIFPATEKQIFEDHVFCHSL", "partner": "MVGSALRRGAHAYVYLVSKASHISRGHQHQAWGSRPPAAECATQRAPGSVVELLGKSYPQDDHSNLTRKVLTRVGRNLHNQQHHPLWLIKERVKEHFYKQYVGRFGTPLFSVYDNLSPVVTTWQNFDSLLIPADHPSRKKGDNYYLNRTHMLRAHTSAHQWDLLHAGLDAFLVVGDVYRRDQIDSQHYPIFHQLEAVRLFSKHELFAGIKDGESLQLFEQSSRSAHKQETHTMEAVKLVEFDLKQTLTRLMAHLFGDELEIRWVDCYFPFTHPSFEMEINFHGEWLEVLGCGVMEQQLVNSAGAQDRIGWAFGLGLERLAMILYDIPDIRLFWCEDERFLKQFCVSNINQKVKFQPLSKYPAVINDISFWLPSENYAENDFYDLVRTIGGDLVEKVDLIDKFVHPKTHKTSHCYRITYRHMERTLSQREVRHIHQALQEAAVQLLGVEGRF"}, "B6": {"name": "Radial spoke head 1 homolog (Homo sapiens), Q8WYR4 (parent)", "chain": "MSDLGSEELEEEGENDIGEYEGGRNEAGERHGRGRARLPNGDTYEGSYEFGKRHGQGIYKFKNGARYIGEYVRNKKHGQGTFIYPDGSRYEGEWANDLRHGHGVYYYINNDTYTGEWFAHQRHGQGTYLYAETGSKYVGTWVNGQQEGTAELIHLNHRYQGKFLNKNPVGPGKYVFDVGCEQHGEYRLTDMERGEEEEEEELVTVVPKWKATQITELALWTPTLPKKPTSTDGPGQDAPGAESAGEPGEEAQALLEGFEGEMDMRPGDEDADVLREESREYDQEEFRYDMDEGNINSEEEETRQSDLQD", "partner": "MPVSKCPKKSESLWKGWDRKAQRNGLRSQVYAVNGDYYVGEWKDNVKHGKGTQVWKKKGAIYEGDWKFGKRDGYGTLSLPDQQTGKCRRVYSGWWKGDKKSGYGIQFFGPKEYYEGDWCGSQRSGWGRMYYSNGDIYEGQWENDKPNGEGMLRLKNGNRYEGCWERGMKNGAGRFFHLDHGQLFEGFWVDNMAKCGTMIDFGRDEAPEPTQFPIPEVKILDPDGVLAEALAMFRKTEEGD"}, "B7": {"name": "Tuftelin-interacting protein 11 (Homo sapiens), Q9UBB9 (parent)", "chain": "MSLSHLYRDGEGRIDDDDDERENFEITDWDLQNEFNPNRQRHWQTKEEATYGVWAERDSDDERPSFGGKRARDYSAPVNFISAGLKKGAAEEAELEDSDDEEKPVKQDDFPKDFGPRKLKTGGNFKPSQKGFAGGTKSFMDFGSWERHTKGIGQKLLQKMGYVPGRGLGKNAQGIINPIEAKQRKGKGAVGAYGSERTTQSMQDFPVVDSEEEAEEEFQKELSQWRKDPSGSKKKPKYSYKTVEELKAKGRISKKLTAPQKELSQVKVIDMTGREQKVYYSYSQISHKHNVPDDGLPLQSQQLPQSGKEAKAPGFALPELEHNLQLLIDLTEQEIIQNDRQLQYERDMVVNLFHELEKMTEVLDHEERVISNLSKVLEMVEECERRMQPDCSNPLTLDECARIFETLQDKYYEEYRMSDRVDLAVAIVYPLMKEYFKEWDPLKDCTYGTEIISKWKSLLENDQLLSHGGQDLSADAFHRLIWEVWMPFVRNIVTQWQPRNCDPMVDFLDSWVHIIPVWILDNILDQLIFPKLQKEVENWNPLTDTVPIHSWIHPWLPLMQARLEPLYSPIRSKLSSALQKWHPSDSSAKLILQPWKDVFTPGSWEAFMVKNIVPKLGMCLGELVINPHQQHMDAFYWVIDWEGMISVSSLVGLLEKHFFPKWLQVLCSWLSNSPNYEEITKWYLGWKSMFSDQVLAHPSVKDKFNEALDIMNRAVSSNVGAYMQPGARENIAYLTHTERRKDFQYEAMQERREAENMAQRGIGVAASSVPMNFKDLIETKAEEHNIVFMPVIGKRHEGKQLYTFGRIVIYIDRGVVFVQGEKTWVPTSLQSLIDMAK", "partner": "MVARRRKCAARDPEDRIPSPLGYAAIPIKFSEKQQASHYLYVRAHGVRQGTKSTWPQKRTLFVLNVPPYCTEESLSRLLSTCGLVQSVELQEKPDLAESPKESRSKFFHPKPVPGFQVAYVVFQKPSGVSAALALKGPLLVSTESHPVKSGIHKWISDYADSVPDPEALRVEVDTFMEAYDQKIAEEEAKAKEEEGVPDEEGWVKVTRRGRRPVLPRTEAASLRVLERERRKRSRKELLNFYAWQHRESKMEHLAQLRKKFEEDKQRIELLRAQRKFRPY"}, "B8": {"name": "Syntenin-1 (Homo sapiens), O00560 (parent)", "chain": "MSLYPSLEDLKVDKVIQAQTAFSANPANPAILSEASAPIPHDGNLYPRLYPELSQYMGLSLNEEEIRANVAVVSGAPLQGQLVARPSSINYMVAPVTGNDVGIRRAEIKQGIREVILCKDQDGKIGLRLKSIDNGIFVQLVQANSPASLVGLRFGDQVLQINGENCAGWSSDKAHKVLKQAFGEKITMTIRDRPFERTITMHKDSTGHVGFIFKNGKITSIVKDSSAARNGLLTEHNICEINGQNVIGLKDSQIADILSTSGTVVTITIMPAFIFEHIIKRMAPSIMKSLMDHTIPEV", "partner": "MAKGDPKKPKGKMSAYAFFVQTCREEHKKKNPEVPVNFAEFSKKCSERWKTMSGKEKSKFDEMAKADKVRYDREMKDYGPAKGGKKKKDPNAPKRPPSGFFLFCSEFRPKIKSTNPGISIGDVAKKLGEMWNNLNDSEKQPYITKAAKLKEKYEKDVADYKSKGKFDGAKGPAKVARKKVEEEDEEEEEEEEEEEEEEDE"}},
  "data": [
    {"variants_of": "B1", "settings": "with rb11a_human RAB11A", "values": [
      {"variant": "H323Y", "effect of a mutation on the interaction": "with no effect"}
    ]},
    {"variants_of": "B2", "settings": "with zn363_human RCHY1, Q96PM5", "values": [
      {"variant": "R74Q", "effect of a mutation on the interaction": "with no effect"},
      {"variant": "A115T", "effect of a mutation on the interaction": "with no effect"}
    ]},
    {"variants_of": "B3", "settings": "with tri27_human TRIM27, P14373", "values": [
      {"variant": "S61R", "effect of a mutation on the interaction": "with no effect"}
    ]},
    {"variants_of": "B4", "settings": "with coac_human PPCDC", "values": [
      {"variant": "A8T", "effect of a mutation on the interaction": "with no effect"},
      {"variant": "E18G", "effect of a mutation on the interaction": "disrupting interaction strength"},
      {"variant": "W127C", "effect of a mutation on the interaction": "with no effect"}
    ]},
    {"variants_of": "B5", "settings": "with syfm_human FARS2, O95363", "values": [
      {"variant": "E222K", "effect of a mutation on the interaction": "with no effect"}
    ]},
    {"variants_of": "B6", "settings": "with morn3_human MORN3, Q6PF18", "values": [
      {"variant": "G144R", "effect of a mutation on the interaction": "with no effect"},
      {"variant": "G248R", "effect of a mutation on the interaction": "with no effect"}
    ]},
    {"variants_of": "B7", "settings": "with rrp7a_human RRP7A", "values": [
      {"variant": "M140V", "effect of a mutation on the interaction": "with no effect"}
    ]},
    {"variants_of": "B8", "settings": "with hmgb3_human HMGB3, O15347", "values": [
      {"variant": "K124R", "effect of a mutation on the interaction": "with no effect"}
    ]}
  ]
}
